Legend:
[1] = molecular target: full length human tau protein 2N4R (hT40) (human) (UniProt P10636); test: Simoa sandwich, capture S1G2, biotinylated detector
[2] = molecular target: full length human tau protein 2N4R (hT40) (human) (UniProt P10636); test: Simoa sandwich, capture Tau12, biotinylated detector
[3] = molecular target: full length human tau protein 2N4R (hT40) (human) (UniProt P10636); test: Simoa sandwich, capture S1D12, biotinylated detector
[4] = molecular target: full length human tau protein 2N4R (hT40) (human) (UniProt P10636); test: Simoa sandwich, capture CB7, biotinylated detector
[5] = molecular target: full length human tau protein 2N4R (hT40) (human) (UniProt P10636); test: SPR, hT40 immobilised, mAb analyte

Chain of full length human tau protein 2N4R (hT40) (human) (P10636 other isoform, or with tags, fused parts or gaps limits assumed): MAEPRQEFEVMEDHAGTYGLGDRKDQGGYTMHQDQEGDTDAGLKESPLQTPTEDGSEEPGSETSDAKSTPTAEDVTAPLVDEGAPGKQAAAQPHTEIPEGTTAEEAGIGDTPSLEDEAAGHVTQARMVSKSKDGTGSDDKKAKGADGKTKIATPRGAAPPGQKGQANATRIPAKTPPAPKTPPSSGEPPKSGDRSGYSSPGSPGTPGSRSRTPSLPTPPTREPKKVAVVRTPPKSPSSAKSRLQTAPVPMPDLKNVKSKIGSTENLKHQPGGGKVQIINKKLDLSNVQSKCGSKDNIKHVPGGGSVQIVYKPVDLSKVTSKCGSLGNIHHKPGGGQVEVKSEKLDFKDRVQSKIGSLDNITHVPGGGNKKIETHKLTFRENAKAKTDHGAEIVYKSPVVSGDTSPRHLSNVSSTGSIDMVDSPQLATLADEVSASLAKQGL

| Simoa limit of detection [1] [pg/mL] | Simoa limit of detection [2] [pg/mL] | Simoa limit of detection [3] [pg/mL] | Simoa limit of detection [4] [pg/mL] | Kd [5] [nM] | Substance |
| --- | --- | --- | --- | --- | --- |
| 0.32 | 2.2 | 0.32 | 2.2 |  | HT7 (antibody) |
| 1.6 |  | 0.75 |  | 1.44 | Tau12 mAb (antibody) |
| 2.2 |  |  | 2.2 |  | Tau46 (antibody) |
|  |  | 0.32 | 0.75 |  | BT2 (antibody) |

— US20250355001A1, “METHOD FOR DETECTING A TAU PROTEIN FRAGMENT IN A SAMPLE” (GTINVENT LIMITED, priority 2022, published 2025)
